Laboratory results from the supplement of paper PMC5998384.

Key:
HeLa Kyoto [1] = assay: solubility change mitosis vs G1/S (difference of NP-40 vs SDS log2 ratios) (log2 ratio difference); higher = more soluble in mitosis
HeLa Kyoto [2] = assay: solubility in G1/S (NP-40 vs SDS abundance) (log2 ratio); higher = more soluble; conditions: cell cycle stage: G1/S
HeLa Kyoto [3] = assay: thermal stability score vs G1/S (z-score of summed log2 fold changes over temperatures); higher = more thermally stable than in G1/S
HeLa Kyoto [4] = assay: melting temperature (median over replicates), in situ; higher = more thermally stable
[5] = cell cycle stage: early G1 (4.5 h after nocodazole release)
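For melting temperature (median over replicates), in situ in this document: HeLa Kyoto cells synchronized by double thymidine or nocodazole block, proteins quantified by TMT10plex mass spectrometry, three independent biological replicates.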
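For solubility change mitosis vs G1/S (difference of NP-40 vs SDS log2 ratios) in this document: synchronized HeLa Kyoto cells (double thymidine block for G1/S, nocodazole release for mitosis), protein amounts in NP-40 versus SDS lysates quantified by mass spectrometry, three biological replicates.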
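For solubility in G1/S (NP-40 vs SDS abundance) in this document: HeLa Kyoto cells arrested at G1/S by double thymidine block, proteins quantified by TMT10plex mass spectrometry in mild NP-40 versus SDS extracts, three biological replicates.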
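For thermal stability score vs G1/S (z-score of summed log2 fold changes over temperatures) in this document: synchronized HeLa Kyoto cells, proteins quantified by TMT10plex mass spectrometry, three biological replicates, mitosis taken 0.5 h after nocodazole release, G1/S directly after double thymidine block.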

TIMM50, sequence (chain, as listed by the source): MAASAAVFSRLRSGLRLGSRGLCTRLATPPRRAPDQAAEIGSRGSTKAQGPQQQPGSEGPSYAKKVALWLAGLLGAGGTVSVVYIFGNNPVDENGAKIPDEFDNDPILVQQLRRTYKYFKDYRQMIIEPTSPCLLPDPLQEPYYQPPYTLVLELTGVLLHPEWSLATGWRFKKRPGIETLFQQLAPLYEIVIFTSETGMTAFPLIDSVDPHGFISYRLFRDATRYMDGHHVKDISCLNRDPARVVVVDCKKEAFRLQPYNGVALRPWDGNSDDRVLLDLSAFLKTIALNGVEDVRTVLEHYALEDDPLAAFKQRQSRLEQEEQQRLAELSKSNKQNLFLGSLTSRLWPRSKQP

| Substance | solubility change mitosis (log2) (HeLa Kyoto [1]) | solubility in G1/S (log2) (HeLa Kyoto [2]) | thermal stability score (HeLa Kyoto [3]; [5]) | thermal stability score (HeLa Kyoto [3]; cell cycle stage: mitosis) | melting temperature (HeLa Kyoto [4]; cell cycle stage: G1/S) [°C] | melting temperature (HeLa Kyoto [4]; cell cycle stage: mitosis) [°C] |
| --- | --- | --- | --- | --- | --- | --- |
| MSTLYVSPHPDAFPSLRALIAARYGEAGEGPGWGGAHPRICLQPPPTSRTPFPPPRLPALEQGPGGLWVWGATAVAQLLWPAGLGGPGGSRAAVLVQQWVSYADTELIPAACGATLPALGLRSSAQDPQAVLGALGRALSPLEEWLRLHTYLAGEAPTLADLAAVTALLLPFRYVLDPPARRIWNNVTRWFVTCVRQPEFRAVLGEVVLYSGARPLSHQPGPEAPALPKTAAQLKKEAKKREKLEKFQQKQKIQQQQPPPGEKKPKPEKREKRDPGVITYDLPTPPGEKKDVSGPMPDSYSPRYVEAAWYPWWEQQGFFKPEYGRPNVSAANPRGVFMMCIPPPNVTGSLHLGHALTNAIQDSLTRWHRMRGETTLWNPGCDHAGIATQVVVEKKLWREQGLSRHQLGREAFLQEVWKWKEEKGDRIYHQLKKLGSSLDWDRACFTMDPKLSAAVTEAFVRLHEEGIIYRSTRLVNWSCTLNSAISDIEVDKKELTGRTLLSVPGYKEKVEFGVLVSFAYKVQGSDSDEEVVVATTRIETMLGDVAVAVHPKDTRYQHLKGKNVIHPFLSRSLPIVFDEFVDMDFGTGAVKITPAHDQNDYEVGQRHGLEAISIMDSRGALINVPPPFLGLPRFEARKAVLVALKERGLFRGIEDNPMVVPLCNRSKDVVEPLLRPQWYVRCGEMAQAASAAVTRGDLRILPEAHQRTWHAWMDNIREWCISRQLWWGHRIPAYFVTVSDPAVPPGEDPDGRYWVSGRNEAEAREKAAKEFGVSPDKISLQQDEDVLDTWFSSGLFPLSILGWPNQSEDLSVFYPGTLLETGHDILFFWVARMVMLGLKLTGRLPFREVYLHAIVRDAHGRKMSKSLGNVIDPLDVIYGISLQGLHNQLLNSNLDPSEVEKAKEGQKADFPAGIPECGTDALRFGLCAYMSQGRDINLDVNRILGYRHFCNKLWNATKFALRGLGKGFVPSPTSQPGGHESLVDRWIRSRLTEAVRLSNQGFQAYDFPAVTTAQYSFWLYELCDVYLECLKPVLNGVDQVAAECARQTLYTCLDVGLRLLSPFMPFVTEELFQRLPRRMPQAPPSLCVTPYPEPSECSWKDPEAEAALELALSITRAVRSLRADYNLTRIRPDCFLEVADEATGALASAVSGYVQALASAGVVAVLALGAPAPQGCAVALASDRCSIHLQLQGLVDPARELGKLQAKRVEAQRQAQRLRERRAASGYPVKVPLEVQEADEAKLQQTEAELRKVDEAIALFQKML [VARS] | -0.183 | -0.0962 | -0.359 | -0.482 | 51 | 50.5 |
| MECLRSLPCLLPRAMRLPRRTLCALALDVTSVGPPVAACGRRANLIGRSRAAQLCGPDRLRVAGEVHRFRTSDVSQATLASVAPVFTVTKFDKQGNVTSFERKKTELYQELGLQARDLRFQHVMSITVRNNRIIMRMEYLKAVITPECLLILDYRNLNLEQWLFRELPSQLSGEGQLVTYPLPFEFRAIEALLQYWINTLQGKLSILQPLILETLDALVDPKHSSVDRSKLHILLQNGKSLSELETDIKIFKESILEILDEEELLEELCVSKWSDPQVFEKSSAGIDHAEEMELLLENYYRLADDLSNAARELRVLIDDSQSIIFINLDSHRNVMMRLNLQLTMGTFSLSLFGLMGVAFGMNLESSLEEDHRIFWLITGIMFMGSGLIWRRLLSFLGRQLEAPLPPMMASLPKKTLLADRSMELKNSLRLDGLGSGRSILTNR [MRS2] | 0.124 | -0.297 | -1.88 | -2.56 | 55.4 | 54.5 |
| MAAIRMGKLTTMPAGLIYASVSVHAAKQEESKKQLVKPEQLPIYTAPPLQSKYVEEQPGHLQMGFASIRTATGCYIGWCKGVYVFVKNGIMDTVQFGKDAYVYLKNPPRDFLPKMGVITVSGLAGLVSARKGSKFKKITYPLGLATLGATVCYPVQSVIIAKVTAKKVYATSQQIFGAVKSLWTKSSKEESLPKPKEKTKLGSSSEIEVPAKTTHVLKHSVPLPTELSSEAKTKSESTSGATQFMPDPKLMDHGQSHPEDIDMYSTRS [APOOL] | -0.104 | 0.166 | -1.29 | -2.35 | 53.9 | 57.3 |
| MALLSEGLDEVPAACLSPCGPPNPTELFSESRRLALEELVAGGPEAFAAFLRRERLARFLNPDEVHAILRAAERPGEEGAAAAAAAEDSFGSSHDCSSGTYFPEQSDLEPPLLELGWPAFYQGAYRGATRVETHFQPRGAGEGGPYGCKDALRQQLRSAREVIAVVMDVFTDIDIFRDLQEICRKQGVAVYILLDQALLSQFLDMCMDLKVHPEQEKLMTVRTITGNIYYARSGTKIIGKVHEKFTLIDGIRVATGSYSFTWTDGKLNSSNLVILSGQVVEHFDLEFRILYAQSKPISPKLLSHFQSSNKFDHLTNRKPQSKELTLGNLLRMRLARLSSTPRKADLDPEMPAEGKAERKPHDCESSTVSEEDYFSSHRDELQSRKAIDAATQTEPGEEMPGLSVSEVGTQTSITTACAGTQTAVITRIASSQTTIWSRSTTTQTDMDENILFPRGTQSTEGSPVSKMSVSRSSSLKSSSSVSSQGSVASSTGSPASIRTTDFHNPGYPKYLGTPHLELYLSDSLRNLNKERQFHFAGIRSRLNHMLAMLSRRTLFTENHLGLHSGNFSRVNLLAVRDVALYPSYQ [FAM83D] | -0.133 | -0.213 | 0.13 | -0.391 | 49.8 | 49.4 |
| TIMM50 | -0.0286 | 0.393 | -0.406 | -0.388 | 51.4 | 50.8 |
| MVLADLGRKITSALRSLSNATIINEEVLNAMLKEVCTALLEADVNIKLVKQLRENVKSAIDLEEMASGLNKRKMIQHAVFKELVKLVDPGVKAWTPTKGKQNVIMFVGLQGSGKTTTCSKLAYYYQRKGWKTCLICADTFRAGAFDQLKQNATKARIPFYGSYTEMDPVIIASEGVEKFKNENFEIIIVDTSGRHKQEDSLFEEMLQVANAIQPDNIVYVMDASIGQACEAQAKAFKDKVDVASVIVTKLDGHAKGGGALSAVAATKSPIIFIGTGEHIDDFEPFKTQPFISKLLGMGDIEGLIDKVNELKLDDNEALIEKLKHGQFTLRDMYEQFQNIMKMGPFSQILGMIPGFGTDFMSKGNEQESMARLKKLMTIMDSMNDQELDSTDGAKVFSKQPGRIQRVARGSGVSTRDVQELLTQYTKFAQMVKKMGGIKGLFKGGDMSKNVSQSQMAKLNQQMAKMMDPRVLHHMGGMAGLQSMMRQFQQGAAGNMKGMMGFNNM [SRP54] | 0.157 | 0.193 | 0.232 | 0.227 | 52 | 50.4 |
| MGEFNEKKTTCGTVCLKYLLFTYNCCFWLAGLAVMAVGIWTLALKSDYISLLASGTYLATAYILVVAGTVVMVTGVLGCCATFKERRNLLRLYFILLLIIFLLEIIAGILAYAYYQQLNTELKENLKDTMTKRYHQPGHEAVTSAVDQLQQEFHCCGSNNSQDWRDSEWIRSQEAGGRVVPDSCCKTVVALCGQRDHASNIYKVEGGCITKLETFIQEHLRVIGAVGIGIACVQVFGMIFTCCLYRSLKLEHY [CD151] | 0.0099 | -0.288 | 0.401 | -1.63 | 60 | 61.3 |
| MGDMKTPDFDDLLAAFDIPDIDANEAIHSGPEENEGPGGPGKPEPGVGSESEDTAAASAGDGPGVPAQASDHGLPPPDISVVSVIVKNTVCPEQSEALAGGSAGDGAQAAGVTKEGPVGPHRMQNGFGSPEPSLPGTPHSPAPPSGGTWKEKGMEGKTPLDLFAHFGPEPGDHSDPLPPSAPSPTREGALTPPPFPSSFELAQENGPGMQPPVSSPPLGALKQESCSPHHPQVLAQQGSGSSPKATDIPASASPPPVAGVPFFKQSPGHQSPLASPKVPVCQPLKEEDDDEGPVDKSSPGSPQSPSSGAEAADEDSNDSPASSSSRPLKVRIKTIKTSCGNITRTVTQVPSDPDPPAPLAEGAFLAEASLLKLSPATPTSEGPKVVSVQLGDGTRLKGTVLPVATIQNASTAMLMAASVARKAVVLPGGTATSPKMIAKNVLGLVPQALPKADGRAGLGTGGQKVNGASVVMVQPSKTATGPSTGGGTVISRTQSSLVEAFNKILNSKNLLPAYRPNLSPPAEAGLALPPTGYRCLECGDAFSLEKSLARHYDRRSMRIEVTCNHCARRLVFFNKCSLLLHAREHKDKGLVMQCSHLVMRPVALDQMVGQPDITPLLPVAVPPVSGPLALPALGKGEGAITSSAITTVAAEAPVLPLSTEPPAAPATSAYTCFRCLECKEQCRDKAGMAAHFQQLGPPAPGATSNVCPTCPMMLPNRCSFSAHQRMHKNRPPHVCPECGGNFLQANFQTHLREACLHVSRRVGYRCPSCSVVFGGVNSIKSHIQTSHCEVFHKCPICPMAFKSGPSAHAHLYSQHPSFQTQQAKLIYKCAMCDTVFTHKPLLSSHFDQHLLPQRVSVFKCPSCPLLFAQKRTMLEHLKNTHQSGRLEETAGKGAGGALLTPKTEPEELAVSQGGAAPATEESSSSSEEEEVPSSPEPPRPAKRPRRELGSKGLKGGGGGPGGWTCGLCHSWFPERDEYVAHMKKEHGKSVKKFPCRLCERSFCSAPSLRRHVRVNHEGIKRVYPCRYCTEGKRTFSSRLILEKHVQVRHGLQLGAQSPGRGTTLARGSSARAQGPGRKRRQSSDSCSEEPDSTTPPAKSPRGGPGSGGHGPLRYRSSSSTEQSLMMGLRVEDGAQQCLDCGLCFASPGSLSRHRFISHKKRRGVGKASALGLGDGEEEAPPSRSDPDGGDSPLPASGGPLTCKVCGKSCDSPLNLKTHFRTHGMAFIRARQGAVGDN [ZNF687] | 0.08 | -0.224 | 0.612 | 1.77 | 49 | 50.3 |
| MMLGPEGGEGFVVKLRGLPWSCSVEDVQNFLSDCTIHDGAAGVHFIYTREGRQSGEAFVELGSEDDVKMALKKDRESMGHRYIEVFKSHRTEMDWVLKHSGPNSADSANDGFVRLRGLPFGCTKEEIVQFFSGLEIVPNGITLPVDPEGKITGEAFVQFASQELAEKALGKHKERIGHRYIEVFKSSQEEVRSYSDPPLKFMSVQRPGPYDRPGTARRYIGIVKQAGLERMRPGAYSTGYGGYEEYSGLSDGYGFTTDLFGRDLSYCLSGMYDHRYGDSEFTVQSTTGHCVHMRGLPYKATENDIYNFFSPLNPVRVHIEIGPDGRVTGEADVEFATHEEAVAAMSKDRANMQHRYIELFLNSTTGASNGAYSSQVMQGMGVSAAQATYSGLESQSVSGCYGAGYSGQNSMGGYD [HNRNPF] | -0.0538 | -0.0868 | 3.58 | 9.17 | 48 | 49 |
| MEGAGYRVVFEKGGVYLHTSAKKYQDRDSLIAGVIRVVEKDNDVLLHWAPVEEAGDSTQILFSKKDSSGGDSCASEEEPTFDPGYEPDWAVISTVRPQLCHSEPTRGAEPSCPQGSWAFSVSLGELKSIRRSKPGLSWAYLVLVTQAGGSLPALHFHRGGTRALLRVLSRYLLLASSPQDSRLYLVFPHDSSALSNSFHHLQLFDQDSSNVVSRFLQDPYSTTFSSFSRVTNFFRGALQPQPEGAASDLPPPPDDEPEPGFEVISCVELGPRPTVERGPPVTEEEWARHVGPEGRLQQVPELKNRIFSGGLSPSLRREAWKFLLGYLSWEGTAEEHKAHIRKKTDEYFRMKLQWKSVSPEQERRNSLLHGYRSLIERDVSRTDRTNKFYEGPENPGLGLLNDILLTYCMYHFDLGYVQGMSDLLSPILYVIQNEVDAFWCFCGFMELVQGNFEESQETMKRQLGRLLLLLRVLDPLLCDFLDSQDSGSLCFCFRWLLIWFKREFPFPDVLRLWEVLWTGLPGPNLHLLVACAILDMERDTLMLSGFGSNEILKHINELTMKLSVEDVLTRAEALHRQLTACPELPHNVQEILGLAPPAEPHSPSPTASPLPLSPTRAPPTPPPSTDTAPQPDSSLEILPEEEDEGADS [TBC1D17] | -0.0875 | -0.0906 | -0.527 | -0.608 | 51.4 | 50.7 |
| MAAPGPALCLFDVDGTLTAPRQKITKEMDDFLQKLRQKIKIGVVGGSDFEKVQEQLGNDVVEKYDYVFPENGLVAYKDGKLLCRQNIQSHLGEALIQDLINYCLSYIAKIKLPKKRGTFIEFRNGMLNVSPIGRSCSQEERIEFYELDKKENIRQKFVADLRKEFAGKGLTFSIGGQISFDVFPDGWDKRYCLRHVENDGYKTIYFFGDKTMPGGNDHEIFTDPRTMGYSVTAPEDTRRICELLFS [PMM2] | -0.0066 | 0.526 | 12.5 | 3.25 | 53 | 53.3 |
